{"source": "paper PMC6303017", "about": "“Effects of RNA structure and salt concentration on the affinity and kinetics of interactions between pentatricopeptide repeat proteins and their RNA ligands”", "binders": {"B1": {"name": "atpH-23mer (ssRNA)", "RNA": "AUUGUAUCCUUAACCAUUUCUUU"}, "B2": {"name": "petB SPR RNA (ssRNA)", "RNA": "UGGUAGUUCGACGUGGAUUUU"}, "B3": {"name": "petB RNA (GMS/FB) (ssRNA)", "RNA": "GGUAGUUCGACCGUGGA"}, "B4": {"name": "atpH SPR RNA (ssRNA)", "RNA": "GAUUGUAUCCUUAACCAUUUCUUUU"}}, "key": {"PPR10 [1]": {"target": "T1, PPR10 (UniProt B8Y6I0 96-786)", "T1 sequence": "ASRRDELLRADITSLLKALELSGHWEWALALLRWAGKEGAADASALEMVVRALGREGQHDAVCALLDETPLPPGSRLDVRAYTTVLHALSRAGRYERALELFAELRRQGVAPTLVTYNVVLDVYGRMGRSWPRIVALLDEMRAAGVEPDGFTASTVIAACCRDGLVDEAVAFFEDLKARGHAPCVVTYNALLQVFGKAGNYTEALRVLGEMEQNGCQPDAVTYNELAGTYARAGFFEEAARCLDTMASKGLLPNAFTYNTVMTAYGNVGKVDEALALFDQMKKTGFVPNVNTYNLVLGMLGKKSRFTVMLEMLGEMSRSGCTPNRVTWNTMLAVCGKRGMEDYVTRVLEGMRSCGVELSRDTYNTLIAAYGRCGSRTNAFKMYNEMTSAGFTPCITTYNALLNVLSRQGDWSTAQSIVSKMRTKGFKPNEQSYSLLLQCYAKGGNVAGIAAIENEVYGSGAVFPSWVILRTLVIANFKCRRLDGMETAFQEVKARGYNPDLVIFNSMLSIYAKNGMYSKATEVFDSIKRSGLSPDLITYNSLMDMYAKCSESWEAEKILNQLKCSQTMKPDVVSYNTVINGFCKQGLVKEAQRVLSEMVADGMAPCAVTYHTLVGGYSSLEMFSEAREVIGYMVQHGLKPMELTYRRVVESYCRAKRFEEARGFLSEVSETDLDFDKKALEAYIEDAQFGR", "assay": "EMSA; 0.5 mg/mL heparin, 140 mM NaCl; EMSA: 40 mM Tris-HCl pH 7.5, 140 mM NaCl, 10% glycerol, 4 mM DTT, 0.1 mg/mL BSA, 0.5 mg/mL heparin, RNAsin, 5 pM RNA, 25 C, 30 min; SPR: 100 mM HEPES pH 7.5, 150 mM NaCl, 3 mM EDTA, 1 mM 2-mercaptoethanol, 0.005% P20", "details": "protein: recombinant; tags: MBP fusion, MBP cleaved off; label: 5' 32P; unstructured"}, "HCF152 [2]": {"target": "T2, HCF152 (UniProt Q9SF38 66-778)", "T2 sequence": "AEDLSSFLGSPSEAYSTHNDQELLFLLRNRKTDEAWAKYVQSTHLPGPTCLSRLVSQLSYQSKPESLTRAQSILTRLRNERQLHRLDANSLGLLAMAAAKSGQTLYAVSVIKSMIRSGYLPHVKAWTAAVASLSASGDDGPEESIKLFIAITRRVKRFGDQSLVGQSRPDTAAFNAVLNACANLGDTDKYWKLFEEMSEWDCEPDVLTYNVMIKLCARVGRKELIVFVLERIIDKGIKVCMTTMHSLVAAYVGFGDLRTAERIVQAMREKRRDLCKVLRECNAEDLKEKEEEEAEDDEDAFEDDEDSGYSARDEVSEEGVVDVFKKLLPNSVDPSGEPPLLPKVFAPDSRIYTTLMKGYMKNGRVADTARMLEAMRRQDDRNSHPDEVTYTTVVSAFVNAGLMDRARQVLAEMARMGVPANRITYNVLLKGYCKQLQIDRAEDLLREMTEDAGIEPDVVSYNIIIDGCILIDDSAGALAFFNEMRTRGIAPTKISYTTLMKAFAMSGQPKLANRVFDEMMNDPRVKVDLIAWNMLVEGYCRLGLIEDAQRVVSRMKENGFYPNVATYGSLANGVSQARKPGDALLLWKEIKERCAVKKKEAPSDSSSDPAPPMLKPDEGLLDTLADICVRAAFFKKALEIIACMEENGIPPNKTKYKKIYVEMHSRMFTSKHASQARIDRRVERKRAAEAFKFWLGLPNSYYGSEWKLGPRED", "assay": "SPR; 150 mM NaCl; half-life ~2 h; KD ~30-fold lower than earlier EMSA; EMSA: 40 mM Tris-HCl pH 7.5, 140 mM NaCl, 10% glycerol, 4 mM DTT, 0.1 mg/mL BSA, 0.5 mg/mL heparin, RNAsin, 5 pM RNA, 25 C, 30 min; SPR: 100 mM HEPES pH 7.5, 150 mM NaCl, 3 mM EDTA, 1 mM 2-mercaptoethanol, 0.005% P20", "details": "protein: recombinant; tags: MBP fusion, MBP cleaved off; label: 3' biotin, 6-carbon linker"}, "HCF152 [3]": {"target": "T2, HCF152", "assay": "filter binding; 30 min and overnight (~13 h); tighter apparent KD overnight; EMSA: 40 mM Tris-HCl pH 7.5, 140 mM NaCl, 10% glycerol, 4 mM DTT, 0.1 mg/mL BSA, 0.5 mg/mL heparin, RNAsin, 5 pM RNA, 25 C, 30 min; SPR: 100 mM HEPES pH 7.5, 150 mM NaCl, 3 mM EDTA, 1 mM 2-mercaptoethanol, 0.005% P20", "details": "protein: recombinant; tags: MBP fusion, MBP cleaved off; label: 5' 32P"}, "PPR10 [4]": {"target": "T1, PPR10", "assay": "SPR; 150 mM NaCl; ka ~2e7 M-1s-1; EMSA: 40 mM Tris-HCl pH 7.5, 140 mM NaCl, 10% glycerol, 4 mM DTT, 0.1 mg/mL BSA, 0.5 mg/mL heparin, RNAsin, 5 pM RNA, 25 C, 30 min; SPR: 100 mM HEPES pH 7.5, 150 mM NaCl, 3 mM EDTA, 1 mM 2-mercaptoethanol, 0.005% P20", "details": "protein: recombinant; tags: MBP fusion, MBP cleaved off; label: 3' biotin, 6-carbon linker; unstructured"}}}
{"binder": "B1", "values": [{"measurement": "Kd", "setting": "PPR10 [1]", "value": "~0.05", "unit": "nM"}]}
{"binder": "B2", "values": [{"measurement": "binding result", "setting": "HCF152 [2]", "value": "binds"}]}
{"binder": "B3", "values": [{"measurement": "binding result", "setting": "HCF152 [3]", "value": "binds"}]}
{"binder": "B4", "values": [{"measurement": "Kd", "setting": "PPR10 [4]", "value": "~0.01", "unit": "nM"}]}
